Reference: the supplement of paper PMC9112550, “Optimization of the antimicrobial peptide Bac7 by deep mutational scanning” (BMC Biology, 2022)

Tested on: Escherichia coli TOP10
Test: shrunken log2 fold change of peptide-encoding DNA abundance (4.5 h post-induction vs induction); higher = less antimicrobial activity (less host growth inhibition)
Conditions: time post-induction: 4.5 h; library: site-saturation at positions 5, 18, 19, 20
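Also: peptides expressed intracellularly from a pBAD plasmid library in pooled LB shake-flask culture, induced with 0.3% L-arabinose, DNA abundance read by NGS, three biological replicates, DESeq2 with apeglm shrinkage.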

Sequence	shrunken log2 fold change
RRIRGRPPRLPRPRPRPFPNPRP	0.26
RRIRARPPRLPRPRPRPEDPPRP	0.823
RRIRIRPPRLPRPRPRPTDMPRP	-0.385
RRIRERPPRLPRPRPRPWVWPRP	0.0922
RRIRLRPPRLPRPRPRPMVSPRP	-0.0017
RRIRHRPPRLPRPRPRPEANPRP	0.00386
RRIRRRPPRLPRPRPRPLGKPRP	-0.017
RRIRKRPPRLPRPRPRPTIRPRP	-0.241
RRIRKRPPRLPRPRPRPGPQPRP	0.561
RRIRCRPPRLPRPRPRPPSDPRP	0.213
RRIRSRPPRLPRPRPRPGYIPRP	-0.0571
RRIRCRPPRLPRPRPRPPCRPRP	0.609
RRIRNRPPRLPRPRPRPMRLPRP	0.286
RRIRRRPPRLPRPRPRPQFYPRP	-0.41
RRIRIRPPRLPRPRPRPLPNPRP	-0.217
RRIRGRPPRLPRPRPRPPLEPRP	1.2
RRIRIRPPRLPRPRPRPQIPPRP	-0.216
RRIRDRPPRLPRPRPRPNCPPRP	-0.00232
RRIRARPPRLPRPRPRPHGFPRP	-0.00228
RRIRLRPPRLPRPRPRPPAVPRP	0.341
RRIRRRPPRLPRPRPRPCNKPRP	-0.137
RRIRSRPPRLPRPRPRPCDLPRP	-0.144
RRIRRRPPRLPRPRPRPIRFPRP	0.0747
RRIRHRPPRLPRPRPRPRAHPRP	0.216
RRIRARPPRLPRPRPRPSLIPRP	-0.0273

Sequence	shrunken log2 fold change
RRIRIRPPRLPRPRPRPALHPRP	-0.268
RRIRDRPPRLPRPRPRPILRPRP	-0.0119
RRIRERPPRLPRPRPRPHTYPRP	-0.281
RRIRRRPPRLPRPRPRPTYNPRP	-0.267
RRIRFRPPRLPRPRPRPRFLPRP	-0.421
RRIRPRPPRLPRPRPRPIELPRP	-0.0296
RRIRFRPPRLPRPRPRPPMAPRP	0.277
RRIRHRPPRLPRPRPRPNTFPRP	-0.00529
RRIRIRPPRLPRPRPRPARAPRP	0.307
RRIRARPPRLPRPRPRPHRCPRP	0.0993
RRIRLRPPRLPRPRPRPHGHPRP	-0.126
RRIRPRPPRLPRPRPRPTACPRP	0.338
RRIRTRPPRLPRPRPRPAMCPRP	0.131
RRIRARPPRLPRPRPRPFIIPRP	-0.264
RRIRMRPPRLPRPRPRPQPHPRP	0.46
RRIRPRPPRLPRPRPRPHKLPRP	-0.109
RRIRGRPPRLPRPRPRPRNVPRP	0.642
RRIRSRPPRLPRPRPRPWSRPRP	-0.199
RRIRPRPPRLPRPRPRPCVAPRP	0.51
RRIRCRPPRLPRPRPRPPMKPRP	0.242
RRIRIRPPRLPRPRPRPDYKPRP	-0.231
RRIRFRPPRLPRPRPRPFVDPRP	-0.121
RRIRKRPPRLPRPRPRPHQAPRP	-0.137
RRIRGRPPRLPRPRPRPAILPRP	-0.0316
RRIRWRPPRLPRPRPRPCDQPRP	-0.0328

Sequence	shrunken log2 fold change
RRIRSRPPRLPRPRPRPSPAPRP	0.242
RRIRPRPPRLPRPRPRPDASPRP	0.37
RRIRMRPPRLPRPRPRPLFIPRP	-0.643
RRIRQRPPRLPRPRPRPEWIPRP	-0.00133
RRIRDRPPRLPRPRPRPYNCPRP	-0.0352
RRIRWRPPRLPRPRPRPRQLPRP	-0.0051
RRIRGRPPRLPRPRPRPIDLPRP	0.00416
RRIRVRPPRLPRPRPRPFCMPRP	-0.537
RRIRARPPRLPRPRPRPRQPPRP	0.75
RRIRCRPPRLPRPRPRPYPFPRP	-0.241
RRIRARPPRLPRPRPRPIWYPRP	-0.147
RRIRDRPPRLPRPRPRPEVTPRP	-0.000921
RRIRQRPPRLPRPRPRPGANPRP	0.17
RRIRVRPPRLPRPRPRPMNKPRP	-0.403
RRIRGRPPRLPRPRPRPLFNPRP	0.117
RRIRKRPPRLPRPRPRPNNIPRP	-0.477
RRIRKRPPRLPRPRPRPIPCPRP	0.276
RRIRYRPPRLPRPRPRPCMRPRP	-0.091
RRIRTRPPRLPRPRPRPPCQPRP	-0.215
RRIRIRPPRLPRPRPRPWVNPRP	-0.722
RRIRYRPPRLPRPRPRPKGWPRP	0.465
RRIRSRPPRLPRPRPRPKRAPRP	0.326
RRIRWRPPRLPRPRPRPVAMPRP	0.427
RRIRARPPRLPRPRPRPTCLPRP	0.0548
RRIRFRPPRLPRPRPRPNLGPRP	-0.0272

Sequence	shrunken log2 fold change
RRIRKRPPRLPRPRPRPIILPRP	-0.11
RRIRFRPPRLPRPRPRPENDPRP	0.0619
RRIRDRPPRLPRPRPRPRALPRP	0.226
RRIRFRPPRLPRPRPRPLAEPRP	-0.0472
RRIRIRPPRLPRPRPRPAEFPRP	-0.0793
RRIRMRPPRLPRPRPRPLWQPRP	0.304
RRIRMRPPRLPRPRPRPVRLPRP	0.116
RRIRIRPPRLPRPRPRPTHSPRP	-0.469
RRIRCRPPRLPRPRPRPTWNPRP	0.128
RRIRTRPPRLPRPRPRPAFSPRP	0.193
RRIRHRPPRLPRPRPRPTMTPRP	-0.29
RRIRERPPRLPRPRPRPETFPRP	-0.0158
RRIRMRPPRLPRPRPRPYVLPRP	-0.189
RRIRMRPPRLPRPRPRPCQPPRP	-0.0351
RRIRWRPPRLPRPRPRPAGLPRP	0.289
RRIRMRPPRLPRPRPRPIENPRP	-0.142
RRIRNRPPRLPRPRPRPFYPPRP	-0.5
RRIRQRPPRLPRPRPRPMNMPRP	0.0227
RRIRYRPPRLPRPRPRPKVLPRP	-0.04
RRIRIRPPRLPRPRPRPWNFPRP	-0.00674
RRIRGRPPRLPRPRPRPGDFPRP	0.00388
RRIRKRPPRLPRPRPRPSSLPRP	-0.557
RRIRSRPPRLPRPRPRPLIMPRP	-0.47
RRIRQRPPRLPRPRPRPSQRPRP	-0.523
RRIRARPPRLPRPRPRPKIKPRP	0.0665

Sequence	shrunken log2 fold change
RRIRTRPPRLPRPRPRPYRNPRP	-0.21
RRIRWRPPRLPRPRPRPGEVPRP	-0.0252
RRIRRRPPRLPRPRPRPPNEPRP	0.804
RRIRNRPPRLPRPRPRPHTQPRP	-0.328
RRIRIRPPRLPRPRPRPYQYPRP	-0.19
RRIRKRPPRLPRPRPRPRGNPRP	0.258
RRIRFRPPRLPRPRPRPCREPRP	-0.0892
RRIRLRPPRLPRPRPRPRRCPRP	0.356
RRIRARPPRLPRPRPRPCVDPRP	0.581
RRIRGRPPRLPRPRPRPNHNPRP	-0.409
RRIRFRPPRLPRPRPRPAELPRP	0.281
RRIRNRPPRLPRPRPRPGPDPRP	0.295
RRIRTRPPRLPRPRPRPCITPRP	-0.96
RRIRMRPPRLPRPRPRPFRHPRP	0.0701
RRIRMRPPRLPRPRPRPKGQPRP	1.28
RRIRCRPPRLPRPRPRPKPNPRP	0.572
RRIRTRPPRLPRPRPRPPFMPRP	-0.194
RRIRKRPPRLPRPRPRPVWKPRP	0.138
RRIRKRPPRLPRPRPRPMDSPRP	-0.0874
RRIRRRPPRLPRPRPRPKVKPRP	-0.0947
RRIRSRPPRLPRPRPRPMQAPRP	0.0325
RRIRSRPPRLPRPRPRPHGQPRP	0.24
RRIRWRPPRLPRPRPRPSGGPRP	2.77
RRIRNRPPRLPRPRPRPYTSPRP	-0.325
RRIRCRPPRLPRPRPRPIPYPRP	-0.0796

Sequence	shrunken log2 fold change
RRIRFRPPRLPRPRPRPNICPRP	-0.252
RRIRGRPPRLPRPRPRPTFLPRP	0.356
RRIRTRPPRLPRPRPRPPFGPRP	0.0407
RRIRNRPPRLPRPRPRPRTYPRP	-0.571
RRIRVRPPRLPRPRPRPGIRPRP	-0.0476
RRIRCRPPRLPRPRPRPKMKPRP	-0.269
RRIRMRPPRLPRPRPRPLFPPRP	0.152
RRIRWRPPRLPRPRPRPKFGPRP	0.206
RRIRFRPPRLPRPRPRPMEQPRP	-0.00146
RRIRMRPPRLPRPRPRPDVEPRP	3.52
RRIRIRPPRLPRPRPRPMIKPRP	-0.761
RRIRTRPPRLPRPRPRPHECPRP	-0.287
RRIRQRPPRLPRPRPRPWSHPRP	-0.105
RRIRHRPPRLPRPRPRPADTPRP	-0.406
RRIRFRPPRLPRPRPRPDDTPRP	0.0516
RRIRYRPPRLPRPRPRPLFMPRP	-1.24
RRIRTRPPRLPRPRPRPETNPRP	0.402
RRIRGRPPRLPRPRPRPMYRPRP	0.115
RRIRQRPPRLPRPRPRPRYKPRP	-0.278
RRIRERPPRLPRPRPRPQSAPRP	-0.227
RRIRDRPPRLPRPRPRPFEAPRP	0.277
RRIRVRPPRLPRPRPRPRMEPRP	0.413
RRIRHRPPRLPRPRPRPGFGPRP	0.384
RRIRSRPPRLPRPRPRPRRVPRP	0.452
RRIRQRPPRLPRPRPRPKTMPRP	-0.0635
